# Measured values as given in US7521230B2, “Nucleic acid encoding a Brain Derived Tau Kinase polypeptide and methods of use thereof” (Board of Regents of the University of Nebraska, priority 2002, dated 2009).
# Assays:
# GSK-3beta = GSK-3beta (Homo sapiens, UniProt P49841); details: cited from earlier work
# CDK-5 = CDK-5 (Homo sapiens, UniProt Q00535); details: cited from earlier work
# [1] = tested on: BDTK promoter (CpG1.2-luciferase) in HEK 293 cells; experiment: CpG1.2-luciferase BDTK promoter reporter assay in HEK293 cells; assay type: cell-based, human; details: A-beta 1-42 0-30 μg/ml, 24 hours
# Experimental: A luciferase assay was used to determine promoter activity. To conduct this assay, 1.2 kb and 0.6 kb promoter sequence were inserted into pGL3-control vector (Promega, named as CpG1.2 and CpG0.6, respectively). The luciferase constructs were co-transfected with reference reporter gene (thymidine kinase promoter TK-RL plasmid, Promega) into PC12 and HEK293 cells using lipofection method (GenePorter, Gene Therapy Systems, Inc.). At 48 hours after DNA transfection, each luciferase activity was measured using Dua1-luciferase kit (Promega). […] CpG1.2-luciferase vector was tested for its promoter activity by increasing dose of extracellular beta-amyloid peptide (A-beta) 1-42 (0-30 μg/ml) for 24 hours. CpG1.2 luciferase activities (PC12-CpG or HEK-CpG) are 8- to 10-fold higher than control activities (PC12-control or HEK293-control) without beta-amyloid stimulation.
# BDTK [2] = molecular target: T1, BDTK (Homo sapiens, UniProt Q5TCY1); experiment: BDTK-mediated tau phosphorylation in vitro; assay type: biochemical
# T1 construct: made in house
# T1 sequence (Q5TCY1 38-319): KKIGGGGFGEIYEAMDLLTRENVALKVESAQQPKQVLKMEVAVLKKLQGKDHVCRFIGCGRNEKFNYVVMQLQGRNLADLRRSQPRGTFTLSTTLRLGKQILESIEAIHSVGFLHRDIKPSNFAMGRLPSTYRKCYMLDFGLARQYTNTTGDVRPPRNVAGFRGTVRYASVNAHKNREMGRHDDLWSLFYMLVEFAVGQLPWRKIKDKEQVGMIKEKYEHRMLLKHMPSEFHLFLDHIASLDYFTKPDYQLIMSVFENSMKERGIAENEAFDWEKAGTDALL
# BDTK [3] = molecular target: T1, BDTK; experiment: BDTK phosphorylation (autophosphorylation) in vitro; assay type: biochemical
# Experimental: Purified recombinant human tau (Calbiochem) was phosphorylated by purified BDTK(38-319) and BDTK(52-319) in vitro. Briefly, 1 μg of tau protein and 1 μg of BDTK mutants were incubated in buffer A (50 mM Tris-Cl, pH 7.5, 5mM Mg acetate, 1 mM EDTA, 1 mM DTT, 0.1 mM ATP, 2 μCi [γ-^32P]ATP) or buffer B (100 mM Mes-Na, pH 6.5, 5 mM Mg acetate, 1 mM EGTA, 1 mM DTT, 0.2 mM ATP, and 2 μCi[γ-^32P]ATP). The reaction was stopped at 30, 60, 120, and 180 minutes by addition of Laemmli sampling buffer. Samples were then subjected to SDS-PAGE and autoradiography.
# An assay was conducted to identify promoters and inhibitors of BDTK activity. BDTK peptides may be used to inhibit BDTK activity. Two synthetic peptides (N21: […] (SEQ ID NO:21) and AA21: […]) (SEQ ID NO:22) are synthesized to test if N21 and A21, where conserved two glycine residues are substituted with alanine, has inhibitory effect of BDTK kinase activity in vitro. Increasing amounts of peptides (0-1 mM) were tested for BDTK and tau phosphorylation, in vitro. […] AA21 mutated peptide increased both BDTK (AA21-BDTK, from 30 to 300 μM) and tau phosphorylation (AA21-tau, from 30 μM to […]) in dose response manner.
# Chain of GSK-3beta (P49841 whole entry, species assumed): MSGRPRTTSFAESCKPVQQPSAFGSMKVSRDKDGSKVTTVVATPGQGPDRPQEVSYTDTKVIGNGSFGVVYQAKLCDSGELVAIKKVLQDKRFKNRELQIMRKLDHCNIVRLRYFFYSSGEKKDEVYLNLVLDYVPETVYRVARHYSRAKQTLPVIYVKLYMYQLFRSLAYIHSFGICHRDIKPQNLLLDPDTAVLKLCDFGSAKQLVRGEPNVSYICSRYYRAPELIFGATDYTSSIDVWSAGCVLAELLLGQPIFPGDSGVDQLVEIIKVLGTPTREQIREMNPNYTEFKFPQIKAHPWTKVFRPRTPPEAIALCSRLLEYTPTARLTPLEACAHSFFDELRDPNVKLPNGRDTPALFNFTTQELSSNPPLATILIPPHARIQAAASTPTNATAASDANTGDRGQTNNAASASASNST
# Chain of CDK-5 (Q00535 whole entry, species assumed): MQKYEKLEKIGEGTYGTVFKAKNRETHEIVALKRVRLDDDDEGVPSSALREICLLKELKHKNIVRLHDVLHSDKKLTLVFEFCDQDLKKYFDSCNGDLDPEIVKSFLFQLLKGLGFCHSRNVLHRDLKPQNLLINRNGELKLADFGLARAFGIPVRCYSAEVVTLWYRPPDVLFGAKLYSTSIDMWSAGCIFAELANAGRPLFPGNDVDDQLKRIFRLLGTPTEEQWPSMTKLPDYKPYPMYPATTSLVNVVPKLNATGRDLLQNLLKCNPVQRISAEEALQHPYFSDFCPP
# Chain of CDK-5 (Q15078 whole entry partner, species assumed): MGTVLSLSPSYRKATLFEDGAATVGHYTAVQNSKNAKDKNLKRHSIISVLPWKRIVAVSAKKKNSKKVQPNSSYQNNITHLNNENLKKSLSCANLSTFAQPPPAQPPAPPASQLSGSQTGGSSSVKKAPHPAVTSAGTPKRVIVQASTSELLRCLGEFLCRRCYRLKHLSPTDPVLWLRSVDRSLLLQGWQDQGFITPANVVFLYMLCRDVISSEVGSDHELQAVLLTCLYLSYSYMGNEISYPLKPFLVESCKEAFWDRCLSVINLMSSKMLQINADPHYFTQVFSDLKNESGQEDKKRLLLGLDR
compound,measurement,setting,value
CC(C)[C@H](CO)Nc1nc(Nc2cccc(Cl)c2)c2ncn(C(C)C)c2n1 [puralanol A],IC50,GSK-3beta,13 µM
same,IC50,CDK-5,0.075 µM
Beta-amyloid: extracellular beta-amyloid peptide (A-beta) 1-42,effect on CpG1.2-luciferase activity,[1],weakly stimulated
KDRWKVVKKIGGGGFGEIYEA [N21],effect on tau phosphorylation (N21-tau),BDTK [2]; peptide from 300 μM to 1 μM,partially inhibited
same,inhibition of BDTK phosphorylation,BDTK [3]; peptide 100 μM-1 mM,up to 70%
KDRWKVWKKIAGAGFGEIYEA [AA21],effect on tau phosphorylation (AA21-tau),"BDTK [2]; peptide from 30 μM to 1 μM, dose response manner",increased
same,effect on BDTK phosphorylation (AA21-BDTK),"BDTK [3]; peptide from 30 to 300 μM, dose response manner",increased
